# Measured values published in PMC2574963.
# Target: Heat shock protein 90α (human) (UniProt P07900)
# Experiment: pull-down
substance,measurement,value
Recombinant human Hsp70 (from UniProt P0DMV8 1-641) (natural protein),"percent eluted, Hsp70 alone without m3 (control beads' nonadsorbed = 100%)",18%
same,"percent nonadsorbed, Hsp70 alone without m3 (control beads' nonadsorbed = 100%)",70%
